Results reported in patent publication US20230250154A1 (CYTONICS, published 2023).

T1: ADAMTS4 (human, UniProt O75173 213-685, limits assumed)
T1 sequence (looked up): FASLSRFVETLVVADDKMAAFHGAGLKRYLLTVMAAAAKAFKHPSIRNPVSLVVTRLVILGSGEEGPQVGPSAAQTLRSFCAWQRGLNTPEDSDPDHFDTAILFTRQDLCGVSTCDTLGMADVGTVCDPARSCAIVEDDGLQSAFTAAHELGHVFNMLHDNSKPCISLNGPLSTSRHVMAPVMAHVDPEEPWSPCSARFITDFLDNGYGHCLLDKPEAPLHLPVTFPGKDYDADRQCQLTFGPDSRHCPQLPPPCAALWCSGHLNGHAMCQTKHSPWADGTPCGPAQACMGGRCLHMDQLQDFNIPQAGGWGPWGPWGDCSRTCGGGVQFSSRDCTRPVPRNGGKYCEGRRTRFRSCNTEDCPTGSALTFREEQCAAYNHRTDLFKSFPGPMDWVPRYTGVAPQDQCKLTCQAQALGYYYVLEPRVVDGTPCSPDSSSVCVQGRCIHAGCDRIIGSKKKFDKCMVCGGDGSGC

T2: ADAMTS5 (human, UniProt Q9UNA0 262-622, limits assumed)
T2 sequence (looked up): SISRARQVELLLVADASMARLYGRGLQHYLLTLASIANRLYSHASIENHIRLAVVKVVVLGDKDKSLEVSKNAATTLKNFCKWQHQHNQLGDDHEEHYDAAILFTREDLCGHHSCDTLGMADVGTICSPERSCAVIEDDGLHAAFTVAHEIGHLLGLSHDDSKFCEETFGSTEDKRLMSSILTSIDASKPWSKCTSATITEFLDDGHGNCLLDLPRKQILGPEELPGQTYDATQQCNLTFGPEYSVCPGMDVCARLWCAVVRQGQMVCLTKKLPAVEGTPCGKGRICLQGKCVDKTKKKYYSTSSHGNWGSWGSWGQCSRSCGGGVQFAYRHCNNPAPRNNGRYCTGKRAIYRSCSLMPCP


Experiments:
Experiment in all cases: cell-based or functional assay
ADAMTS4 = molecular target: T1, ADAMTS4
MMP13 = MMP13 (human, UniProt P45452 104-471, limits assumed)
ADAMTS5 = molecular target: T2, ADAMTS5

| Protease Inhibition (% of WT) (ADAMTS4) | Protease Inhibition (% of WT) (MMP13) | Protease Inhibition (% of WT) (ADAMTS5) | Binder |
| --- | --- | --- | --- |
| 108 % of WT | 78 % of WT | 163 % of WT | Variant A2M, bait region SEQ ID NO 115 (other) SVSGKPQYMVLVPSLLHTETTEKGCVLLSYLNETVTVSASLESVRGNRSLFTDLEAENDVLHCVAFAVPKSSSNEEVMFLTVQVKGPTQEFKKRTTVMVKNEDSLVFVQTDKSIYKPGQTVKFRVVSMDENFHPLNELIPLVYIQDPKGNRIAQWQSFQLEGGLKQFSFPLSSEPFQGSYKVVVQKKSGGRTEHPFTVEEFVLPKFEVQVTVPKIITILEEEMNVSVCGLYTYGKPVPGHVTVSICRKYSDASDCHGEDSQAFCEKFSGQLNSHGCFYQQVKTKVFQLKRKEYEMKLHTEAQIQEEGTVVELTGRQSSEITRTITKLSFVKVDSHFRQGIPFFGQVRLVDGKGVPIPNKVIFIRGNEANYYSNATTDEHGLVQFSINTTNVMGTSLTVRVNYKDRSPCYGYQWVSEEHEEAHHTAYLVFSPSKSFVHLEPMSHELPCGHTQTVQAHYILNGGTLLGLKKLSFYYLIMAKGGIVRTGTHGLLVKQEDMKGHFSISIPVKSDIAPVARLLIYAVLPTGDVIGDSAKYDVENCLANKVDLSFSPSQSLPASHAHLRVTAAPQSVCALRAVDQSVLLMKPDAELSASSVYNLLPEKDLTGFPGPLNDQDDEDCINRHNVYINGITYTPVSSTNEKDMYSFLEDMGLKAFTNSKIRKPKMCPQLEEEEGLGSKEEEGLGSPKEEEGLGSKEEEGLGSPKEEEGLGSKLRKYFPETWIWDLVVVNSAGVAEVGVTVPDTITEWKAGAFCLSEDAGLGISSTASLRAFQPFFVELTMPYSVIRGEAFTLKATVLNYLPKCIRVSVQLEASPAFLAVPVEKEQAPHCICANGRQTVSWAVTPKSLGNVNFTVSAEALESQELCGTEVPSVPEHGRKDTVIKPLLVEPEGLEKETTFNSLLCPSGGEVSEELSLKLPPNVVEESARASVSVLGDILGSAMQNTQNLLQMPYGCGEQNMVLFAPNIYVLDYLNETQQLTPEIKSKAIGYLNTGYQRQLNYKHYDGSYSTFGERYGRNQGNTWLTAFVLKTFAQARAYIFIDEAHITQALIWLSQRQKDNGCFRSSGSLLNNAIKGGVEDEVTLSAYITIALLEIPLTVTHPVVRNALFCLESAWKTAQEGDHGSHVYTKALLAYAFALAGNQDKRKEVLKSLNEEAVKKDNSVHWERPQKPKAPVGHFYEPQAPSAEVEMTSYVLLAYLTAQPAPTSEDLTSATNIVKWITKQQNAQGGFSSTQDTVVALHALSKYGAATFTRTGKAAQVTIQSSGTFSSKFQVDNNNRLLLQQVSLPELPGEYSMKVTGEGCVYLQTSLKYNILPEKEEFPFALGVQTLPQTCDEPKAHTSFQISLSVSYTGSRSASNMAIVDVKMVSGFIPLKPTVKMLERSNHVSRTEVSSNHVLIYLDKVSNQTLSLFFTVLQDVPVRDLKPAIVKVYDYYETDEFAIAEYNAPCSKDLGNADYKDDDDKGASHHHHHH |
| 100 % of WT | 11 % of WT | 190 % of WT | Variant A2M, bait region SEQ ID NO 117 (other) SVSGKPQYMVLVPSLLHTETTEKGCVLLSYLNETVTVSASLESVRGNRSLFTDLEAENDVLHCVAFAVPKSSSNEEVMFLTVQVKGPTQEFKKRTTVMVKNEDSLVFVQTDKSIYKPGQTVKFRVVSMDENFHPLNELIPLVYIQDPKGNRIAQWQSFQLEGGLKQFSFPLSSEPFQGSYKVVVQKKSGGRTEHPFTVEEFVLPKFEVQVTVPKIITILEEEMNVSVCGLYTYGKPVPGHVTVSICRKYSDASDCHGEDSQAFCEKFSGQLNSHGCFYQQVKTKVFQLKRKEYEMKLHTEAQIQEEGTVVELTGRQSSEITRTITKLSFVKVDSHFRQGIPFFGQVRLVDGKGVPIPNKVIFIRGNEANYYSNATTDEHGLVQFSINTTNVMGTSLTVRVNYKDRSPCYGYQWVSEEHEEAHHTAYLVFSPSKSFVHLEPMSHELPCGHTQTVQAHYILNGGTLLGLKKLSFYYLIMAKGGIVRTGTHGLLVKQEDMKGHFSISIPVKSDIAPVARLLIYAVLPTGDVIGDSAKYDVENCLANKVDLSFSPSQSLPASHAHLRVTAAPQSVCALRAVDQSVLLMKPDAELSASSVYNLLPEKDLTGFPGPLNDQDDEDCINRHNVYINGITYTPVSSTNEKDMYSFLEDMGLKAFTNSKIRKPKMCPQLEENFFGVTEGEARGSPTSEDLVVQKEEEGLGSEAIPMSIPKLRKYFPETWIWDLVVVNSAGVAEVGVTVPDTITEWKAGAFCLSEDAGLGISSTASLRAFQPFFVELTMPYSVIRGEAFTLKATVLNYLPKCIRVSVQLEASPAFLAVPVEKEQAPHCICANGRQTVSWAVTPKSLGNVNFTVSAEALESQELCGTEVPSVPEHGRKDTVIKPLLVEPEGLEKETTFNSLLCPSGGEVSEELSLKLPPNVVEESARASVSVLGDILGSAMQNTQNLLQMPYGCGEQNMVLFAPNIYVLDYLNETQQLTPEIKSKAIGYLNTGYQRQLNYKHYDGSYSTFGERYGRNQGNTWLTAFVLKTFAQARAYIFIDEAHITQALIWLSQRQKDNGCFRSSGSLLNNAIKGGVEDEVTLSAYITIALLEIPLTVTHPVVRNALFCLESAWKTAQEGDHGSHVYTKALLAYAFALAGNQDKRKEVLKSLNEEAVKKDNSVHWERPQKPKAPVGHFYEPQAPSAEVEMTSYVLLAYLTAQPAPTSEDLTSATNIVKWITKQQNAQGGFSSTQDTVVALHALSKYGAATFTRTGKAAQVTIQSSGTFSSKFQVDNNNRLLLQQVSLPELPGEYSMKVTGEGCVYLQTSLKYNILPEKEEFPFALGVQTLPQTCDEPKAHTSFQISLSVSYTGSRSASNMAIVDVKMVSGFIPLKPTVKMLERSNHVSRTEVSSNHVLIYLDKVSNQTLSLFFTVLQDVPVRDLKPAIVKVYDYYETDEFAIAEYNAPCSKDLGNADYKDDDDKGASHHHHHH |
| 107 % of WT | 116 % of WT | 92 % of WT | Variant A2M, bait region SEQ ID NO 116 (other) SVSGKPQYMVLVPSLLHTETTEKGCVLLSYLNETVTVSASLESVRGNRSLFTDLEAENDVLHCVAFAVPKSSSNEEVMFLTVQVKGPTQEFKKRTTVMVKNEDSLVFVQTDKSIYKPGQTVKFRVVSMDENFHPLNELIPLVYIQDPKGNRIAQWQSFQLEGGLKQFSFPLSSEPFQGSYKVVVQKKSGGRTEHPFTVEEFVLPKFEVQVTVPKIITILEEEMNVSVCGLYTYGKPVPGHVTVSICRKYSDASDCHGEDSQAFCEKFSGQLNSHGCFYQQVKTKVFQLKRKEYEMKLHTEAQIQEEGTVVELTGRQSSEITRTITKLSFVKVDSHFRQGIPFFGQVRLVDGKGVPIPNKVIFIRGNEANYYSNATTDEHGLVQFSINTTNVMGTSLTVRVNYKDRSPCYGYQWVSEEHEEAHHTAYLVFSPSKSFVHLEPMSHELPCGHTQTVQAHYILNGGTLLGLKKLSFYYLIMAKGGIVRTGTHGLLVKQEDMKGHFSISIPVKSDIAPVARLLIYAVLPTGDVIGDSAKYDVENCLANKVDLSFSPSQSLPASHAHLRVTAAPQSVCALRAVDQSVLLMKPDAELSASSVYNLLPEKDLTGFPGPLNDQDDEDCINRHNVYINGITYTPVSSTNEKDMYSFLEDMGLKAFTNSKIRKPKMCPQLEELEGRGSKEEEGLGSIPENFFGVFYESDVMGRGHARLVHVEEPHTKLRKYFPETWIWDLVVVNSAGVAEVGVTVPDTITEWKAGAFCLSEDAGLGISSTASLRAFQPFFVELTMPYSVIRGEAFTLKATVLNYLPKCIRVSVQLEASPAFLAVPVEKEQAPHCICANGRQTVSWAVTPKSLGNVNFTVSAEALESQELCGTEVPSVPEHGRKDTVIKPLLVEPEGLEKETTFNSLLCPSGGEVSEELSLKLPPNVVEESARASVSVLGDILGSAMQNTQNLLQMPYGCGEQNMVLFAPNIYVLDYLNETQQLTPEIKSKAIGYLNTGYQRQLNYKHYDGSYSTFGERYGRNQGNTWLTAFVLKTFAQARAYIFIDEAHITQALIWLSQRQKDNGCFRSSGSLLNNAIKGGVEDEVTLSAYITIALLEIPLTVTHPVVRNALFCLESAWKTAQEGDHGSHVYTKALLAYAFALAGNQDKRKEVLKSLNEEAVKKDNSVHWERPQKPKAPVGHFYEPQAPSAEVEMTSYVLLAYLTAQPAPTSEDLTSATNIVKWITKQQNAQGGFSSTQDTVVALHALSKYGAATFTRTGKAAQVTIQSSGTFSSKFQVDNNNRLLLQQVSLPELPGEYSMKVTGEGCVYLQTSLKYNILPEKEEFPFALGVQTLPQTCDEPKAHTSFQISLSVSYTGSRSASNMAIVDVKMVSGFIPLKPTVKMLERSNHVSRTEVSSNHVLIYLDKVSNQTLSLFFTVLQDVPVRDLKPAIVKVYDYYETDEFAIAEYNAPCSKDLGNADYKDDDDKGASHHHHHH |
